From patent US20250122274A1 (SCHOLAR ROCK, published 2025)

Legend:
[1] = target: cyno pro-myostatin (cynomolgus monkey); assay: ELISA-type titration, OD 450 nm, Cyno-Pro-GDF-8 Plate 2; protocol not described in the text
[2] = target: cyno pro-myostatin (cynomolgus monkey); assay: ELISA-type titration, OD 450 nm, Cyno-Pro-GDF-8 Plate 1; protocol not described in the text
murine pro-myostatin [3] = target: T1, murine pro-myostatin (mouse, UniProt O08689 25-376, biotinylated (SPR)); assay: ELISA-type titration, absorbance 450 nm, panel Murine Pure Pro-GDF-8; protocol not described in the text
T1 construct: also called proGDF8 (mouse); mouse pro-myostatin

murine pro-myostatin [4] = target: T1, murine pro-myostatin; assay: ELISA-type titration, OD 450 nm, Mu-Pro-GDF-8 Plate 1; protocol not described in the text
human pro-myostatin = target: T2, human pro-myostatin (human, UniProt O14793 24-375, biotinylated (SPR)); assay: SPR Biacore 8K, biotinylated antigen captured
T2 construct: Disulfide-linked homodimer; also called proGDF8 (human)

B1: Ab116 (antibody, human IgG4 S228P, kappa, V domains shown)
VH: QVQLVQSGAEVKKPGASVKVSCKVSGFTFSRPAIHWVRQAPGKGLEWMGGINPNAATTIYAQKFQGRVTMTEDTSTDTAYMELSSLKSEDTAVYYCARGRLLREWELRPYDTWGQGTLVTVSS
VL: DIQMTQSPSSVSASVGDRVTITCRASQSIGKSLAWYQQKPGKAPKLLIYSASNLRSGVPSRFSGSGSGTDFTLTISSLQPEDFANYYCQQYRDVPPITFGGGTKVEIKR
Q: B1 was tested. Which EC50 (read off the curve) [1] did it give?
A: The EC50 (read off the curve) was 0.5 nM.

B2: Ab110 (antibody, human IgG4 S228P, kappa, V domains shown)
VH: QVQLVQSGAEVKKPGASVKVSCKVSEYTFTNYDIHWVRQAPGKGLEWMGGISAYHGNAIYAQKFQGRVTMTEDTSTDTAYMELSSLKSEDTAVYYCARDRVRRDYYNFGMDVWGQGTTVTVSS
VL: DIQMTQSPSSVSASVGDRVTITCRASEDITSYLAWYQQKPGKAPKLLIYDVSSLQSGVPSRFSGSGSGTDFTLTISSLQPEDFANYYCLQHNAYPYGFGGGTKVEIKR
Q: B2 was tested. Which EC50 (read off the curve) [2] did it give?
A: Its EC50 (read off the curve) is 0.3 nM.

B3: Ab104 (antibody, human IgG4 S228P, kappa, V domains shown)
VH: EVQLVESGGGLVQPGGSLRLSCAASGSAFSSYGMSWVRQAPGKGLELVASINSNGGSTYYPDSVKGRFTISRDNAKNSLYLQMNSLRAEDTAVYYCARDLLVKFLSWSHYYGMDVWGQGTTVTVSS
VL: DIVMTQSPLSLPVTPGEPASISCRSSQSLLHSSGHNFLHWYLQKPGQSPQLLIYEVSNRVSGVPDRFSGSGSGTDFTLKISRVEAEDVGVYYCMQQTQYPPTFGGGTKVEIKR
Q: How did the “EC50 (read off the curve)” value (murine pro-myostatin [3]) turn out when B3 was run?
A: Its value is about 0.7 nM.

B4: Ab113 (antibody, human IgG4 S228P, kappa, V domains shown)
VH: QVQLVQSGAEVKKPGASVKVSCKVSGYLLTELSIHWVRQAPGKGLEWMGGIIPSFGTAIYAQKFQGRVTMTEDTSTDTAYMELSSLKSEDTAVYYCAISYSGFDLLPLDKWGQGTLVTVSS
VL: DIQMTQSPSSVSASVGDRVTITCRASQHISTWLAWYQQKPGKAPKLLIYYASSLQGGVPSRFSGSGSGTDFTLTISSLQPEDFANYYCLQTYTYPRTFGGGTKVEIKR
Q: Does B4 bind (murine pro-myostatin [4])?
A: Result: binds

B5: Ab109 (antibody, human IgG4 S228P, kappa, V domains shown)
VH: EVQLVESGGGLVQPGGSLRLSCAASGFTFSSYGMSWVRQAPGKGLELVASFTGSGGTYYPDSVKGRFTISRDNAKNSLYLQMNSLRAEDTAVYYCARDLLIRFLEWSHYYGMDVWGQGTTVTVSS
VL: B3 VL
notes: also called Ab109 Human IgG4
Q: With B5 as the binder, how does the koff (human pro-myostatin) read?
A: Its koff is about 0.000916 s⁻¹.
